We go through 10 molecules from US10428140B2, “Anti-EphA4 antibody” (EISAI R&D MANAGEMENT CO., LTD., priority 2015, dated 2019).

Substitutions are numbered along the chain they refer to.

B1: 154 (antibody, V domains shown)
VH: QVQLVQSGSELKKPGASVKVSCKASGYTFTDYSMHWVRQAPGQGLEWMGWINTETGEPTYADDFKGRFVFSLDTSVSTAYLQISSLKAEDTAVYYCARIPLYYYGSRYWYFDVWGQGTTVTVSS
VL: DIQMTQSPSSLSASVGDRVTITCRASENIYRNLAWYQQKPGKAPKLLLYAATNLADGVPSRFSGSGSGTDYTLTISSLQSEDFATYYCQHFWGTPWTFGQGTKVEIK
modifications: synthetic humanized antibody heavy chain variable region sequence; synthetic humanized antibody light chain variable region sequence
B2: 134 (antibody, V domains shown)
VH: B1 VH with E46K, D62Q, D63G, K65T
VL: EIVMTQSPATLSVSPGERATLSCRASENIYRNLAWYQQKPGQSPRLLIYAATNLADGIPARFSGSGSGTEYTLTISSLQSEDFAVYYCQHFWGTPWTFGQGTKVEIK
modifications: synthetic humanized antibody heavy chain variable region sequence; synthetic humanized antibody light chain variable region sequence
B3: 158 (antibody, V domains shown)
VH: B1 VH with E46K, D62Q, D63G, K65T
VL: B1 VL with K45Q, S80P
modifications: synthetic humanized antibody heavy chain variable region sequence; synthetic humanized antibody light chain variable region sequence
B4: 144 (antibody, V domains shown)
VH: B1 VH
VL: B1 VL with K45Q, S80P
modifications: synthetic humanized antibody heavy chain variable region sequence; synthetic humanized antibody light chain variable region sequence
B5: 145 (antibody, V domains shown)
VH: B1 VH with E46K
VL: B1 VL
modifications: synthetic humanized antibody heavy chain variable region sequence; synthetic humanized antibody light chain variable region sequence
B6: 133 (antibody, V domains shown)
VH: B1 VH with D62Q, D63G, K65T
VL: B2 VL
modifications: synthetic humanized antibody heavy chain variable region sequence; synthetic humanized antibody light chain variable region sequence
B7: 155 (antibody, V domains shown)
VH: B1 VH with V2I, E46K
VL: B1 VL
modifications: synthetic humanized antibody heavy chain variable region sequence; synthetic humanized antibody light chain variable region sequence
B8: 159 (antibody, V domains shown)
VH: B1 VH with E46K
VL: B1 VL with K45Q, S80P
modifications: synthetic humanized antibody heavy chain variable region sequence; synthetic humanized antibody light chain variable region sequence
B9: 160 (antibody, V domains shown)
VH: B1 VH with V2I, E46K
VL: B1 VL with K45Q, S80P
modifications: synthetic humanized antibody heavy chain variable region sequence; synthetic humanized antibody light chain variable region sequence
B10: 157 (antibody, V domains shown)
VH: B1 VH with D62Q, D63G, K65T
VL: B1 VL with K45Q, S80P
modifications: synthetic humanized antibody heavy chain variable region sequence; synthetic humanized antibody light chain variable region sequence

Chain of SEAP-His (P05187 23-511 limits assumed): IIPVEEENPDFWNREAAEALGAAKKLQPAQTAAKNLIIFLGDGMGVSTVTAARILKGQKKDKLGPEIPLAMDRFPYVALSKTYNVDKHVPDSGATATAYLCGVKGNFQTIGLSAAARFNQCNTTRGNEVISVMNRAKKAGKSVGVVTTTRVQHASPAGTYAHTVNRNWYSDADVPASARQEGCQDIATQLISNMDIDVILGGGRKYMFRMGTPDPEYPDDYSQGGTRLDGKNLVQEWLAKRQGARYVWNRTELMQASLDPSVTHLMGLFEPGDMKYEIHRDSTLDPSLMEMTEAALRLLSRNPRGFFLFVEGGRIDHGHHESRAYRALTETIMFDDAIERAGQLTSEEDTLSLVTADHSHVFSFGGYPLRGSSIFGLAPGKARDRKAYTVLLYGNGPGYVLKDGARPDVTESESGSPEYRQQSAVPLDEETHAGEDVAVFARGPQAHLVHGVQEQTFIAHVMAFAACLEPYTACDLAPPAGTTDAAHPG

One experiment has as its target SEAP-His (Homo sapiens, UniProt P05187). Put plainly: Selectivity ELISA of humanized antibodies for human Eph receptor. In kind it is binding. Particulars: coated protein 1 nM. In a few lines: (§1)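 Human Eph ECD-SEAP-His fusions, harvested after 5 days of Expi293F expression, are captured on anti-His-coated wells (1 nM final). Bound humanized antibody is detected with HRP anti-IgG and TMB at 450 nm.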
(An ELISA detects its analyte on a solid surface through an enzyme-linked reagent.)
For the molecule B1, the “SEAP-His: absorbance at 450 nm, percentage with respect to hEphA4-SEAP-His as 100%” value is reported as 6.3%.

In the case of B2, the “SEAP-His: absorbance at 450 nm, percentage with respect to hEphA4-SEAP-His as 100%” value was 5.1%.

Regarding B3, the “SEAP-His: absorbance at 450 nm, percentage with respect to hEphA4-SEAP-His as 100%” value is given as 6.3%.

For B4, the “SEAP-His: absorbance at 450 nm, percentage with respect to hEphA4-SEAP-His as 100%” value was found to be 5.7%.

Regarding B5, the “SEAP-His: absorbance at 450 nm, percentage with respect to hEphA4-SEAP-His as 100%” value is on record as 6.4%.

As for B6, the “SEAP-His: absorbance at 450 nm, percentage with respect to hEphA4-SEAP-His as 100%” value came out at 4.7%.

Consider B7, for which the “SEAP-His: absorbance at 450 nm, percentage with respect to hEphA4-SEAP-His as 100%” value is on record as 5.8%.

In the case of B8, the “SEAP-His: absorbance at 450 nm, percentage with respect to hEphA4-SEAP-His as 100%” value is listed as 5.3%.

On to B9, for which the “SEAP-His: absorbance at 450 nm, percentage with respect to hEphA4-SEAP-His as 100%” value was 6.3%.

Take B10: the “SEAP-His: absorbance at 450 nm, percentage with respect to hEphA4-SEAP-His as 100%” value is recorded as 6.1%.

In the next experiment the target is T1, human EphA7 (Homo sapiens, UniProt Q15375).
T1 construct: a protein of the extracellular region of each human Eph receptor fused with the SEAP protein and the His tag; made in house; host or cells: Expi293F cells (culture supernatant)
T1 sequence (Q15375 28-555 limits assumed): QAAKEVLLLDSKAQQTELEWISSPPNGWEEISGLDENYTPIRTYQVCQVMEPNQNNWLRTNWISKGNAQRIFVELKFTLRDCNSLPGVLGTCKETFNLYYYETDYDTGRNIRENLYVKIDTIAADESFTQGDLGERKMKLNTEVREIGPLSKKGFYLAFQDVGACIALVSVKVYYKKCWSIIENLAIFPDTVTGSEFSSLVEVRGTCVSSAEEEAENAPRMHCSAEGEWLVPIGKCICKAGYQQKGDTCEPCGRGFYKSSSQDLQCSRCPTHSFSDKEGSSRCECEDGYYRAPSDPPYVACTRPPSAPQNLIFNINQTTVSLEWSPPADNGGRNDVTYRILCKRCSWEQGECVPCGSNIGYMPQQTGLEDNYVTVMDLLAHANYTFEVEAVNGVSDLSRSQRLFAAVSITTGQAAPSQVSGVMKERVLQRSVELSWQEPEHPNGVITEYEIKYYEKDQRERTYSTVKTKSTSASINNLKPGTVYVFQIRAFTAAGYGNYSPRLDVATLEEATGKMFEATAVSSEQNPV
The experiment is described as above. As to conditions: coated protein 1 nM. The experiment is classed as binding. In a few lines: as §1
In the case of B1, the “hEphA7-SEAP-: absorbance at 450 nm, percentage with respect to hEphA4-SEAP-His as 100%” value worked out at 6.3%.

For B2, the “hEphA7-SEAP-: absorbance at 450 nm, percentage with respect to hEphA4-SEAP-His as 100%” value was determined as 5.1%.

Regarding B3, the “hEphA7-SEAP-: absorbance at 450 nm, percentage with respect to hEphA4-SEAP-His as 100%” value worked out at 6.3%.

As to B4, the “hEphA7-SEAP-: absorbance at 450 nm, percentage with respect to hEphA4-SEAP-His as 100%” value is 5.6%.

Turning to B5, the “hEphA7-SEAP-: absorbance at 450 nm, percentage with respect to hEphA4-SEAP-His as 100%” value is 6.3%.

Take B6: the “hEphA7-SEAP-: absorbance at 450 nm, percentage with respect to hEphA4-SEAP-His as 100%” value stood at 4.6%.

Regarding B7, the “hEphA7-SEAP-: absorbance at 450 nm, percentage with respect to hEphA4-SEAP-His as 100%” value was found to be 5.6%.

B8: the “hEphA7-SEAP-: absorbance at 450 nm, percentage with respect to hEphA4-SEAP-His as 100%” value is 5.5%.

Turning to B9, the “hEphA7-SEAP-: absorbance at 450 nm, percentage with respect to hEphA4-SEAP-His as 100%” value came out at 6.1%.

B10: the “hEphA7-SEAP-: absorbance at 450 nm, percentage with respect to hEphA4-SEAP-His as 100%” value is on record as 6.0%.

A further experiment addresses T2, human EphA8 (Homo sapiens, UniProt P29322).
T2 construct: a protein of the extracellular region of each human Eph receptor fused with the SEAP protein and the His tag; made in house; host or cells: Expi293F cells (culture supernatant)
T2 sequence (P29322 28-542 limits assumed): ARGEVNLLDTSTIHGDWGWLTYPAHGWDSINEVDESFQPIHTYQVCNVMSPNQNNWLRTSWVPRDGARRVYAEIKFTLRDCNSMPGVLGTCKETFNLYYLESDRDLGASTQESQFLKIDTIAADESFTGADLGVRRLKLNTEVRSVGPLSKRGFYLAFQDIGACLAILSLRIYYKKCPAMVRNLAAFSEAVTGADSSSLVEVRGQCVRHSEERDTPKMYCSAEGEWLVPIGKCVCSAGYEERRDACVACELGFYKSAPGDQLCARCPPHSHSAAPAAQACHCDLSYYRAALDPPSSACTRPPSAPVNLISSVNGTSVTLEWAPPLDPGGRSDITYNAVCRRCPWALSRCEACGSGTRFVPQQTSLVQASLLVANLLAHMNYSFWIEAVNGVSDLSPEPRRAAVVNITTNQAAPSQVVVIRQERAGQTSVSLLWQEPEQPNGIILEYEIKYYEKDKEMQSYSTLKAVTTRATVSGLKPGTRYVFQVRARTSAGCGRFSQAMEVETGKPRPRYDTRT
The description is as above. Particulars: coated protein 1 nM. The experiment is classed as binding. The procedure, abridged: as §1
Take B1: the “hEphA8-SEAP-: absorbance at 450 nm, percentage with respect to hEphA4-SEAP-His as 100%” value worked out at 5.5%.

As to B2, the “hEphA8-SEAP-: absorbance at 450 nm, percentage with respect to hEphA4-SEAP-His as 100%” value turned out to be 5.7%.

As to B3, the “hEphA8-SEAP-: absorbance at 450 nm, percentage with respect to hEphA4-SEAP-His as 100%” value was found to be 6.4%.

As for B4, the “hEphA8-SEAP-: absorbance at 450 nm, percentage with respect to hEphA4-SEAP-His as 100%” value is recorded as 5.8%.

Consider B5, for which the “hEphA8-SEAP-: absorbance at 450 nm, percentage with respect to hEphA4-SEAP-His as 100%” value stood at 6.6%.

In the case of B6, the “hEphA8-SEAP-: absorbance at 450 nm, percentage with respect to hEphA4-SEAP-His as 100%” value is 4.7%.

Turning to B7, the “hEphA8-SEAP-: absorbance at 450 nm, percentage with respect to hEphA4-SEAP-His as 100%” value came to 5.5%.

Consider B8, for which the “hEphA8-SEAP-: absorbance at 450 nm, percentage with respect to hEphA4-SEAP-His as 100%” value turned out to be 5.5%.

Regarding B9, the “hEphA8-SEAP-: absorbance at 450 nm, percentage with respect to hEphA4-SEAP-His as 100%” value is given as 5.4%.

For the molecule B10, the “hEphA8-SEAP-: absorbance at 450 nm, percentage with respect to hEphA4-SEAP-His as 100%” value amounted to 6.0%.

A further experiment has as its target T3, human EphB4 (Homo sapiens, UniProt P54760).
T3 construct: a protein of the extracellular region of each human Eph receptor fused with the SEAP protein and the His tag; made in house; host or cells: Expi293F cells
T3 sequence (P54760 16-539 limits assumed): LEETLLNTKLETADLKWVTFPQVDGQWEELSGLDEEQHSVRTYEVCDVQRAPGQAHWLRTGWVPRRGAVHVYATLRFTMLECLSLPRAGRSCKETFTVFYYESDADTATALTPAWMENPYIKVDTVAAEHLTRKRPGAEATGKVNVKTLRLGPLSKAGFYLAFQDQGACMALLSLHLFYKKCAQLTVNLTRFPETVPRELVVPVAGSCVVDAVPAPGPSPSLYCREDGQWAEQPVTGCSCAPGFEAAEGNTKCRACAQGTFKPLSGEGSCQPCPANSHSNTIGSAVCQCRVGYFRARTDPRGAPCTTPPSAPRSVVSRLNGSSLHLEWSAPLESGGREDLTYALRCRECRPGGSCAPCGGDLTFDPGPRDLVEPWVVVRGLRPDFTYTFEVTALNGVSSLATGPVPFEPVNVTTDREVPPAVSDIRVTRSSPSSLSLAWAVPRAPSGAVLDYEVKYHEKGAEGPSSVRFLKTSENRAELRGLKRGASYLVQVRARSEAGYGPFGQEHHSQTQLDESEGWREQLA
Described as above. In kind it is binding. Particulars: coated protein 1 nM. In a few lines: as §1
As to B1, the “hEphB4-SEAP-: absorbance at 450 nm, percentage with respect to hEphA4-SEAP-His as 100%” value amounted to 6.4%.

Turning to B2, the “hEphB4-SEAP-: absorbance at 450 nm, percentage with respect to hEphA4-SEAP-His as 100%” value amounted to 5.1%.

For the molecule B3, the “hEphB4-SEAP-: absorbance at 450 nm, percentage with respect to hEphA4-SEAP-His as 100%” value was determined as 6.5%.

B4: the “hEphB4-SEAP-: absorbance at 450 nm, percentage with respect to hEphA4-SEAP-His as 100%” value turned out to be 5.7%.

For the molecule B5, the “hEphB4-SEAP-: absorbance at 450 nm, percentage with respect to hEphA4-SEAP-His as 100%” value came to 6.7%.

In the case of B6, the “hEphB4-SEAP-: absorbance at 450 nm, percentage with respect to hEphA4-SEAP-His as 100%” value is 4.9%.

For B7, the “hEphB4-SEAP-: absorbance at 450 nm, percentage with respect to hEphA4-SEAP-His as 100%” value was 5.7%.

Take B8: the “hEphB4-SEAP-: absorbance at 450 nm, percentage with respect to hEphA4-SEAP-His as 100%” value is on record as 5.4%.

On to B9, for which the “hEphB4-SEAP-: absorbance at 450 nm, percentage with respect to hEphA4-SEAP-His as 100%” value is on record as 6.3%.

On to B10, for which the “hEphB4-SEAP-: absorbance at 450 nm, percentage with respect to hEphA4-SEAP-His as 100%” value was 6.5%.
